According to PMC3141235:

Biological target: yAsf1 mutant V94R labeled with Alexa Fluor 532 (S. cerevisiae)
Assay: other fluorescence titration

- Kd: 290 nM
Substance: X. laevis H3^C110A / H4^T71C labeled with the Qsy9 fluorescence quencher (complex)
